Measurements: the supplement of paper PMC9112550, “Optimization of the antimicrobial peptide Bac7 by deep mutational scanning” (BMC Biology, 2022)

Tested on: Escherichia coli TOP10
Assay: shrunken log2 fold change of peptide-encoding DNA abundance (4.5 h post-induction vs induction); higher = less antimicrobial activity (less host growth inhibition)
Settings: time post-induction: 4.5 h; library: site-saturation at positions 5, 18, 19, 20
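Also: peptides expressed intracellularly from a pBAD plasmid library in pooled LB shake-flask culture, induced with 0.3% L-arabinose, DNA abundance read by NGS, three biological replicates, DESeq2 with apeglm shrinkage.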

Row | Sequence | shrunken log2 fold change
1 | RRIRNRPPRLPRPRPRPFSYPRP | -0.171
2 | RRIRVRPPRLPRPRPRPRFWPRP | 0.64
3 | RRIRVRPPRLPRPRPRPYVYPRP | -0.0156
4 | RRIRRRPPRLPRPRPRPDWDPRP | -0.0829
5 | RRIRPRPPRLPRPRPRPRAKPRP | 0.692
6 | RRIRFRPPRLPRPRPRPQENPRP | 0.133
7 | RRIRIRPPRLPRPRPRPFGMPRP | -0.498
8 | RRIRFRPPRLPRPRPRPSMLPRP | -0.47
9 | RRIRWRPPRLPRPRPRPAGLPRP | 0.289
10 | RRIRSRPPRLPRPRPRPAWWPRP | 0.23
11 | RRIRKRPPRLPRPRPRPAMPPRP | 0.788
12 | RRIRTRPPRLPRPRPRPWQEPRP | 0.0948
13 | RRIRWRPPRLPRPRPRPANWPRP | 0.273
14 | RRIRGRPPRLPRPRPRPKNSPRP | 0.252
15 | RRIRTRPPRLPRPRPRPMGPPRP | -0.114
16 | RRIRARPPRLPRPRPRPWMLPRP | -0.306
17 | RRIRKRPPRLPRPRPRPMDRPRP | 0.0586
18 | RRIRRRPPRLPRPRPRPKQQPRP | 0.0775
19 | RRIRQRPPRLPRPRPRPVPWPRP | -0.01
20 | RRIRIRPPRLPRPRPRPVAIPRP | 0.0188
21 | RRIRLRPPRLPRPRPRPYENPRP | -0.0259

Row | Sequence | shrunken log2 fold change
22 | RRIRLRPPRLPRPRPRPGMEPRP | 0.251
23 | RRIRHRPPRLPRPRPRPAMTPRP | -0.00367
24 | RRIRLRPPRLPRPRPRPEACPRP | -0.0158
25 | RRIRIRPPRLPRPRPRPLIQPRP | -1.02
26 | RRIRYRPPRLPRPRPRPLFSPRP | -0.673
27 | RRIRWRPPRLPRPRPRPNSHPRP | -0.16
28 | RRIRMRPPRLPRPRPRPPVCPRP | 0.439
29 | RRIRPRPPRLPRPRPRPLEIPRP | -0.199
30 | RRIRVRPPRLPRPRPRPYMRPRP | 0.162
31 | RRIRKRPPRLPRPRPRPETDPRP | 0.0366
32 | RRIRMRPPRLPRPRPRPKHWPRP | 0.91
33 | RRIRPRPPRLPRPRPRPRGQPRP | 0.204
34 | RRIRERPPRLPRPRPRPYKEPRP | -0.117
35 | RRIRMRPPRLPRPRPRPITNPRP | -0.192
36 | RRIRRRPPRLPRPRPRPSQIPRP | 0.092
37 | RRIRTRPPRLPRPRPRPNPVPRP | -0.0168
38 | RRIRDRPPRLPRPRPRPFSFPRP | -0.763
39 | RRIRKRPPRLPRPRPRPDEEPRP | 2.82
40 | RRIRARPPRLPRPRPRPYITPRP | -0.904
41 | RRIRYRPPRLPRPRPRPCVQPRP | -0.236
42 | RRIRFRPPRLPRPRPRPRTHPRP | 0.114

Row | Sequence | shrunken log2 fold change
43 | RRIRQRPPRLPRPRPRPVAWPRP | 0.128
44 | RRIRYRPPRLPRPRPRPPYCPRP | -0.287
45 | RRIRCRPPRLPRPRPRPGPWPRP | 0.422
46 | RRIRNRPPRLPRPRPRPADNPRP | 0.0856
47 | RRIRMRPPRLPRPRPRPANMPRP | -0.203
48 | RRIRYRPPRLPRPRPRPYLEPRP | -1.7
49 | RRIRNRPPRLPRPRPRPMQHPRP | -0.0549
50 | RRIRMRPPRLPRPRPRPDWWPRP | 0.218
51 | RRIRARPPRLPRPRPRPWINPRP | -0.218
52 | RRIRQRPPRLPRPRPRPVVTPRP | 0.219
53 | RRIRFRPPRLPRPRPRPDEKPRP | -0.0935
54 | RRIRYRPPRLPRPRPRPKTCPRP | -0.0102
55 | RRIRERPPRLPRPRPRPQNNPRP | -0.911
56 | RRIRQRPPRLPRPRPRPWSKPRP | 0.00202
57 | RRIRKRPPRLPRPRPRPMTKPRP | 0.397
58 | RRIRHRPPRLPRPRPRPREHPRP | -0.126
59 | RRIRQRPPRLPRPRPRPPMRPRP | 0.862
60 | RRIRGRPPRLPRPRPRPSRRPRP | 0.647
61 | RRIRIRPPRLPRPRPRPVPPPRP | 0.144
62 | RRIRIRPPRLPRPRPRPEDMPRP | 0.0397
